From patent US5681715 come the findings set out here.

The target in experiment [1] is LipD, lipase from P. cepacia DSM 3401 (Pseudomonas cepacia DSM 3401).
Experiment [2] has the same target. This is another data set of the same source.
Experiment [3] concerns the target LipA-LipD hybrid lipase (pAHE16, pAHE23) (Pseudomonas cepacia DSM 3959; Pseudomonas cepacia DSM 3401) (UniProt P22088).
Experiment [4] has as its target mature, extracellular lipase from P. cepacia DSM 3959 (Pseudomonas cepacia DSM 3959) (UniProt P22088).
In experiment [5] the target is intracellular prelipase from P. cepacia DSM 3959 (Pseudomonas cepacia DSM 3959) (UniProt P22088).
The target of experiment [6] is mature LipA produced in E. coli without signal peptide (pAHE19, pAHE22) (Pseudomonas cepacia DSM 3959) (UniProt P22088).
The target in experiment [7] is LipA lipase of Pseudomonas cepacia DSM 3959 produced in E. coli from pAHE2 or pAHE10 (inclusion bodies) (Pseudomonas cepacia DSM 3959) (UniProt P22088).
Experiment [8] has the same target. This is another data set of the same source.

As to “LimA, Pseudomonas cepacia lipase modulator (chaperone molecule) from P. cepacia DSM 3959 (from UniProt P22089)”, the LU after renaturation and % recovery, new preparation in experiment [1] stood at 56 LU. In experiment [2], this substance returned a No of LU recovered (+UREA) and % recovery after denaturation and renaturation, first preparation of 0.45 LU. Also, the LU after renaturation in experiment [3] came out at 1 LU; in experiment [4], 1.3 LU; in experiment [5], 0 LU; in experiment [6] it was 0.75 LU. In experiment [7], this substance returned a No of lipase units recovered after denaturation and renaturation, inclusion bodies diluted 1:10 of 7.8 LU. The same substance displayed a No of LU recovered after denaturation and renaturation (pH stat), inclusion bodies undiluted in experiment [8] of 16 LU.
